# In PMC10540216, “Activity Guided Azide-methyllysine Photo-trapping for Substrate Profiling of Lysine Demethylases” (Journal of the American Chemical Society, 2023):
# B1: TBB5_HUMAN (protein, UniProt P07437 1-444, looked up)
# Tubulin beta chain: MREIVHIQAGQCGNQIGAKFWEVISDEHGIDPTGTYHGDSDLQLDRISVYYNEATGGKYVPRAILVDLEPGTMDSVRSGPFGQIFRPDNFVFGQSGAGNNWAKGHYTEGAELVDSVLDVVRKEAESCDCLQGFQLTHSLGGGTGSGMGTLLISKIREEYPDRIMNTFSVVPSPKVSDTVVEPYNATLSVHQLVENTDETYCIDNEALYDICFRTLKLTTPTYGDLNHLVSATMSGVTTCLRFPGQLNADLRKLAVNMVPFPRLHFFMPGFAPLTSRGSQQYRALTVPELTQQVFDAKNMMAACDPRHGRYLTVAAVFRGRMSMKEVDEQMLNVQNKNSSYFVEWIPNNVKTAVCDIPPRGLKMAVTFIGNSTAIQELFKRISEQFTAMFRRKAFLHWYTGEGMDEMEFTEAESNMNDLVSEYQQYQDATAEEEEDFGEEAEEEA
# B2: LMNB1_HUMAN (protein, UniProt P20700 2-583, looked up)
# Lamin-B1: ATATPVPPRMGSRAGGPTTPLSPTRLSRLQEKEELRELNDRLAVYIDKVRSLETENSALQLQVTEREEVRGRELTGLKALYETELADARRALDDTARERAKLQIELGKCKAEHDQLLLNYAKKESDLNGAQIKLREYEAALNSKDAALATALGDKKSLEGDLEDLKDQIAQLEASLAAAKKQLADETLLKVDLENRCQSLTEDLEFRKSMYEEEINETRRKHETRLVEVDSGRQIEYEYKLAQALHEMREQHDAQVRLYKEELEQTYHAKLENARLSSEMNTSTVNSAREELMESRMRIESLSSQLSNLQKESRACLERIQELEDLLAKEKDNSRRMLTDKEREMAEIRDQMQQQLNDYEQLLDVKLALDMEISAYRKLLEGEEERLKLSPSPSSRVTVSRASSSRSVRTTRGKRKRVDVEESEASSSVSISHSASATGNVCIEEIDVDGKFIRLKNTSEQDQPMGGWEMIRKIGDTSVSYKYTSRYVLKAGQTVTIWAANAGVTASPPTDLIWKNQNSWGTGEDVKVILKNSQGEEVAQRSTVFKTTIPEEEEEEEEAAGVVVEEELFHQQGTPRASNRSC
# B3: LMNA_HUMAN (protein, UniProt P02545 1-661, looked up)
# Prelamin-A/C: METPSQRRATRSGAQASSTPLSPTRITRLQEKEDLQELNDRLAVYIDRVRSLETENAGLRLRITESEEVVSREVSGIKAAYEAELGDARKTLDSVAKERARLQLELSKVREEFKELKARNTKKEGDLIAAQARLKDLEALLNSKEAALSTALSEKRTLEGELHDLRGQVAKLEAALGEAKKQLQDEMLRRVDAENRLQTMKEELDFQKNIYSEELRETKRRHETRLVEIDNGKQREFESRLADALQELRAQHEDQVEQYKKELEKTYSAKLDNARQSAERNSNLVGAAHEELQQSRIRIDSLSAQLSQLQKQLAAKEAKLRDLEDSLARERDTSRRLLAEKEREMAEMRARMQQQLDEYQELLDIKLALDMEIHAYRKLLEGEEERLRLSPSPTSQRSRGRASSHSSQTQGGGSVTKKRKLESTESRSSFSQHARTSGRVAVEEVDEEGKFVRLRNKSNEDQSMGNWQIKRQNGDDPLLTYRFPPKFTLKAGQVVTIWAAGAGATHSPPTDLVWKAQNTWGCGNSLRTALINSTGEEVAMRKLVRSVTVVEDDEDEDGDDLLHHHHGSHCSSSGDPAEYNLRSRTVLCGTCGQPADKASASGSGAQVGGPISSGSSASSVTVTRSYRSVGGSGGGSFGDNLVTRSYLLGNSSPRTQSPQNC
# B4: NONO_HUMAN (protein, UniProt Q15233 1-471, looked up)
# Non-POU domain-containing …: MQSNKTFNLEKQNHTPRKHHQHHHQQQHHQQQQQQPPPPPIPANGQQASSQNEGLTIDLKNFRKPGEKTFTQRSRLFVGNLPPDITEEEMRKLFEKYGKAGEVFIHKDKGFGFIRLETRTLAEIAKVELDNMPLRGKQLRVRFACHSASLTVRNLPQYVSNELLEEAFSVFGQVERAVVIVDDRGRPSGKGIVEFSGKPAARKALDRCSEGSFLLTTFPRPVTVEPMDQLDDEEGLPEKLVIKNQQFHKEREQPPRFAQPGSFEYEYAMRWKALIEMEKQQQDQVDRNIKEAREKLEMEMEAARHEHQVMLMRQDLMRRQEELRRMEELHNQEVQKRKQLELRQEEERRRREEEMRRQQEEMMRRQQEGFKGTFPDAREQEIRMGQMAMGGAMGINNRGAMPPAPVPAGTPAPPGPATMMPDGTLGLTPPTTERFGQAATMEGIGAIGGTPPAFNRAAPGAEFAPNKRRRY
# B5: ACINU_HUMAN (protein, UniProt Q9UKV3 1-1341, looked up)
# Apoptotic chromatin …: MWRRKHPRTSGGTRGVLSGNRGVEYGSGRGHLGTFEGRWRKLPKMPEAVGTDPSTSRKMAELEEVTLDGKPLQALRVTDLKAALEQRGLAKSGQKSALVKRLKGALMLENLQKHSTPHAAFQPNSQIGEEMSQNSFIKQYLEKQQELLRQRLEREAREAAELEEASAESEDEMIHPEGVASLLPPDFQSSLERPELELSRHSPRKSSSISEEKGDSDDEKPRKGERRSSRVRQARAAKLSEGSQPAEEEEDQETPSRNLRVRADRNLKTEEEEEEEEEEEEDDEEEEGDDEGQKSREAPILKEFKEEGEEIPRVKPEEMMDERPKTRSQEQEVLERGGRFTRSQEEARKSHLARQQQEKEMKTTSPLEEEEREIKSSQGLKEKSKSPSPPRLTEDRKKASLVALPEQTASEEETPPPLLTKEASSPPPHPQLHSEEEIEPMEGPAPAVLIQLSPPNTDADTRELLVSQHTVQLVGGLSPLSSPSDTKAESPAEKVPEESVLPLVQKSTLADYSAQKDLEPESDRSAQPLPLKIEELALAKGITEECLKQPSLEQKEGRRASHTLLPSHRLKQSADSSSSRSSSSSSSSSRSRSRSPDSSGSRSHSPLRSKQRDVAQARTHANPRGRPKMGSRSTSESRSRSRSRSRSASSNSRKSLSPGVSRDSSTSYTETKDPSSGQEVATPPVPQLQVCEPKERTSTSSSSVQARRLSQPESAEKHVTQRLQPERGSPKKCEAEEAEPPAATQPQTSETQTSHLPESERIHHTVEEKEEVTMDTSENRPENDVPEPPMPIADQVSNDDRPEGSVEDEEKKESSLPKSFKRKISVVSATKGVPAGNSDTEGGQPGRKRRWGASTATTQKKPSISITTESLKSLIPDIKPLAGQEAVVDLHADDSRISEDETERNGDDGTHDKGLKICRTVTQVVPAEGQENGQREEEEEEKEPEAEPPVPPQVSVEVALPPPAEHEVKKVTLGDTLTRRSISQQKSGVSITIDDPVRTAQVPSPPRGKISNIVHISNLVRPFTLGQLKELLGRTGTLVEEAFWIDKIKSHCFVTYSTVEEAVATRTALHGVKWPQSNPKFLCADYAEQDELDYHRGLLVDRPSETKTEEQGIPRPLHPPPPPPVQPPQHPRAEQREQERAVREQWAEREREMERRERTRSEREWDRDKVREGPRSRSRSRDRRRKERAKSKEKKSEKKEKAQEEPPAKLLDDLFRKTKAAPCIYWLPLTDSQIVQKEAERAERAKEREKRRKEQEEEEQKEREKEAERERNRQLEREKRREHSRERDRERERERERDRGDRDRDRERDRERGRERDRRDTKRHSRSRSRSTPVRDRGGRR
# B6: HNRPL_HUMAN (protein, UniProt P14866 1-589, looked up)
# Heterogeneous nuclear …: MSRRLLPRAEKRRRRLEQRQQPDEQRRRSGAMVKMAAAGGGGGGGRYYGGGSEGGRAPKRLKTDNAGDQHGGGGGGGGGAGAAGGGGGGENYDDPHKTPASPVVHIRGLIDGVVEADLVEALQEFGPISYVVVMPKKRQALVEFEDVLGACNAVNYAADNQIYIAGHPAFVNYSTSQKISRPGDSDDSRSVNSVLLFTILNPIYSITTDVLYTICNPCGPVQRIVIFRKNGVQAMVEFDSVQSAQRAKASLNGADIYSGCCTLKIEYAKPTRLNVFKNDQDTWDYTNPNLSGQGDPGSNPNKRQRQPPLLGDHPAEYGGPHGGYHSHYHDEGYGPPPPHYEGRRMGPPVGGHRRGPSRYGPQYGHPPPPPPPPEYGPHADSPVLMVYGLDQSKMNCDRVFNVFCLYGNVEKVKFMKSKPGAAMVEMADGYAVDRAITHLNNNFMFGQKLNVCVSKQPAIMPGQSYGLEDGSCSYKDFSESRNNRFSTPEQAAKNRIQHPSNVLHFFNAPLEVTEENFFEICDELGVKRPSSVKVFSGKSERSSSGLLEWESKSDALETLGFLNHYQMKNPNGPYPYTLKLCFSTAQHAS
# B7: KT33A_HUMAN (protein, UniProt O76009 1-404, looked up)
# Keratin, type I cuticular …: MSYSCGLPSLSCRTSCSSRPCVPPSCHGCTLPGACNIPANVSNCNWFCEGSFNGSEKETMQFLNDRLASYLEKVRQLERDNAELENLIRERSQQQEPLVCASYQSYFKTIEELQQKILCSKSENARLVVQIDNAKLASDDFRTKYETELSLRQLVESDINGLRRILDELTLCRSDLEAQVESLKEELLCLKQNHEQEVNTLRCQLGDRLNVEVDAAPTVDLNQVLNETRSQYEALVETNRREVEQWFATQTEELNKQVVSSSEQLQSYQAEIIELRRTVNALEIELQAQHNLRDSLENTLTESEARYSSQLSQVQRLITNVESQLAEIRSDLERQNQEYQVLLDVRARLECEINTYRSLLESEDCKLPSNPCATTNACDKSTGPCISNPCGLRARCGPCNTFGY
# B8: K1H1_HUMAN (protein, UniProt Q15323 1-416, looked up)
# Keratin, type I cuticular Ha1: MPYNFCLPSLSCRTSCSSRPCVPPSCHSCTLPGACNIPANVSNCNWFCEGSFNGSEKETMQFLNDRLASYLEKVRQLERDNAELENLIRERSQQQEPLLCPSYQSYFKTIEELQQKILCTKSENARLVVQIDNAKLAADDFRTKYQTELSLRQLVESDINGLRRILDELTLCKSDLEAQVESLKEELLCLKSNHEQEVNTLRCQLGDRLNVEVDAAPTVDLNRVLNETRSQYEALVETNRREVEQWFTTQTEELNKQVVSSSEQLQSYQAEIIELRRTVNALEIELQAQHNLRDSLENTLTESEARYSSQLSQVQSLITNVESQLAEIRSDLERQNQEYQVLLDVRARLECEINTYRSLLESEDCNLPSNPCATTNACSKPIGPCLSNPCTSCVPPAPCTPCAPRPRCGPCNSFVR
# B9: HNRPQ_HUMAN (protein, UniProt O60506 2-623, looked up)
# Heterogeneous nuclear …: ATEHVNGNGTEEPMDTTSAVIHSENFQTLLDAGLPQKVAEKLDEIYVAGLVAHSDLDERAIEALKEFNEDGALAVLQQFKDSDLSHVQNKSAFLCGVMKTYRQREKQGTKVADSSKGPDEAKIKALLERTGYTLDVTTGQRKYGGPPPDSVYSGQQPSVGTEIFVGKIPRDLFEDELVPLFEKAGPIWDLRLMMDPLTGLNRGYAFVTFCTKEAAQEAVKLYNNHEIRSGKHIGVCISVANNRLFVGSIPKSKTKEQILEEFSKVTEGLTDVILYHQPDDKKKNRGFCFLEYEDHKTAAQARRRLMSGKVKVWGNVGTVEWADPIEDPDPEVMAKVKVLFVRNLANTVTEEILEKAFSQFGKLERVKKLKDYAFIHFDERDGAVKAMEEMNGKDLEGENIEIVFAKPPDQKRKERKAQRQAAKNQMYDDYYYYGPPHMPPPTRGRGRGGRGGYGYPPDYYGYEDYYDYYGYDYHNYRGGYEDPYYGYEDFQVGARGRGGRGARGAAPSRGRGAAPPRGRAGYSQRGGPGSARGVRGARGGAQQQRGRGVRGARGGRGGNVGGKRKADGYNQPDSKRRQTNNQNWGSQPIAQQPLQGGDHSGNYGYKSENQEFYQDTFGQQWK
# Tested on: KDM4A-I71AzF
# Assay: CASI: photo-crosslinking with HEK293T cell extracts, StrepTactin enrichment and LC-MS/MS proteomics;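 also: lysates from HEK293T cells pretreated with a KDM4 inhibitor to raise proteome methylation, affinity-purified after ±UV, gel-resolved, trypsin-digested, with exclusive unique peptides per protein averaged per condition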
# Format: binding, human
# Conditions: sheet "Final results but with 0.01"
row,Molecule,Fold change (+UV/-UV)
1,B1,0.75
2,B2,0.7273
3,B3,1.25
4,B4,1.778
5,B5,2
6,B6,1.125
7,B7,300
8,B8,800
9,B9,200
